In patent publication US20060193821, “Aptamers to the human IL-12 cytokine family and their use as autoimmune disease therapeutics” (published 2006):

B1: ARC1464 (mixed)
RNA: ACAGGCAAGUAAUUGGGGAGUGCGGGCGGGGUGU
modifications: deoxy A,G; 2'-OMe C,U; PS 31-32; 3'-idT [2'-OMe C,U at 2,6,10,13,14,21,23,27,32,34; deoxy A,G elsewhere; PS 31-32 (N = PS linkage, left out); 3'-inverted dT at 35]
B2: ARC1429 (mixed)
RNA: B1 RNA
modifications: 2'-OMe C,U and G4; other A,G deoxy; 3'-idT
B3: ARC1455 (mixed)
RNA: B1 RNA
modifications: deoxy A,G; 2'-OMe C,U; PS 5-6; 3'-idT [PS linkage 5-6; 2'-OMe C,U at 2,6,10,13,14,21,23,27,32,34; all A,G 2'-deoxy; 3'-inverted dT at 35]
B4: ARC1443 (mixed)
RNA: B1 RNA
modifications: 2'-OMe C,U and G24; other A,G deoxy; 3'-idT
B5: ARC1442 (mixed)
RNA: B1 RNA
modifications: 2'-OMe C,U and G22; other A,G deoxy; 3'-idT
B6: ARC1437 (mixed)
RNA: B1 RNA
modifications: 2'-OMe C,U and G16; other A,G deoxy; 3'-idT
B7: ARC1430 (mixed)
RNA: B1 RNA
modifications: 2'-OMe C,U and G5; other A,G deoxy; 3'-idT
B8: ARC1432 (mixed)
RNA: B1 RNA
modifications: 2'-OMe C,U and A8; other A,G deoxy; 3'-idT
B9: ARC1451 (mixed)
RNA: B1 RNA
modifications: 2'-OMe C,U and A1,A3,G33; other A,G deoxy; 3'-idT
B10: ARC1459 (mixed)
RNA: B1 RNA
modifications: deoxy A,G; 2'-OMe C,U; PS 23-24; 3'-idT [PS linkage 23-24; 2'-OMe C,U at 2,6,10,13,14,21,23,27,32,34; all A,G 2'-deoxy; 3'-inverted dT at 35]
B11: ARC1427 (mixed)
RNA: B1 RNA
modifications: 2'-OMe C,U and A1; other A,G deoxy; 3'-idT
B12: ARC1438 (mixed)
RNA: B1 RNA
modifications: 2'-OMe C,U and G17; other A,G deoxy; 3'-idT
B13: ARC1444 (mixed)
RNA: B1 RNA
modifications: 2'-OMe C,U and G25; other A,G deoxy; 3'-idT
B14: ARC1450 (mixed)
RNA: B1 RNA
modifications: 2'-OMe C,U and G33; other A,G deoxy; 3'-idT
B15: ARC1428 (mixed)
RNA: B1 RNA
modifications: 2'-OMe C,U and A3; other A,G deoxy; 3'-idT
B16: ARC1452 (mixed)
RNA: B1 RNA
modifications: 2'-OMe C,U and A7,A8,G15; other A,G deoxy; 3'-idT
B17: ARC1456 (mixed)
RNA: B1 RNA
modifications: deoxy A,G; 2'-OMe C,U; PS 15-16; 3'-idT [PS linkage 15-16; 2'-OMe C,U at 2,6,10,13,14,21,23,27,32,34; all A,G 2'-deoxy; 3'-inverted dT at 35]
B18: ARC1462 (mixed)
RNA: B1 RNA
modifications: deoxy A,G; 2'-OMe C,U; PS 29-30; 3'-idT [2'-OMe C,U at 2,6,10,13,14,21,23,27,32,34; deoxy A,G elsewhere; PS 29-30 (N = PS linkage, left out); 3'-inverted dT at 35]
B19: ARC1542 (mixed)
RNA: B1 RNA
modifications: 2'-OMe C,U and G26,G28,G29; other A,G deoxy; 3'-idT
B20: ARC1454 (mixed)
RNA: B1 RNA
modifications: deoxy A,G; 2'-OMe C,U; PS 4-5; 3'-idT [PS linkage 4-5; 2'-OMe C,U at 2,6,10,13,14,21,23,27,32,34; all A,G 2'-deoxy; 3'-inverted dT at 35]
B21: ARC1458 (mixed)
RNA: B1 RNA
modifications: deoxy A,G; 2'-OMe C,U; PS 17-18; 3'-idT [PS linkage 17-18; 2'-OMe C,U at 2,6,10,13,14,21,23,27,32,34; all A,G 2'-deoxy; 3'-inverted dT at 35]
B22: AMX86-B5 (ssRNA)
RNA: GGGAAAAGCGAAUCAUACACAAGAUUAGUGCGUGUGUUGAAAGGGCUCAUAAUGUCAGUAUCGAGCUCCGCCAGAGACCAACCGAGAA
modifications: 2'-F C,U
B23: ARC1470 (mixed)
RNA: GGCAAGUAAUUGGGGAGUGCGGGCGGGG
modifications: deoxy A,G; 2'-OMe C,U; six PS; 3'-idT [2'-OMe C,U at 3,7,10,11,18,20,24; deoxy A,G elsewhere; PS 8-9,16-17,17-18,18-19,19-20,23-24 (N = PS linkage, left out); 3'-inverted dT at 29]

Columns and labels:
[1] = target: T1, IL-23 (human, p19/p40 heterodimer) (Homo sapiens, UniProt Q9NPF7;P29460 SEQ:20-189,SEQ:23-328); experiment: filter; DPBS Ca Mg; details: tags: R&D Systems, carrier free
T1 sequence (Q9NPF7 20-189, chain 1 of 2): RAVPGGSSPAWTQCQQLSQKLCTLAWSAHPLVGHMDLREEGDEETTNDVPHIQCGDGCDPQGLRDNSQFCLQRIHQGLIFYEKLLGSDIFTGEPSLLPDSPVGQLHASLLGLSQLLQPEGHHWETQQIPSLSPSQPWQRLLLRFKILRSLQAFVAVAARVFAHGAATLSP
T1 sequence (P29460 23-328, chain 2 of 2): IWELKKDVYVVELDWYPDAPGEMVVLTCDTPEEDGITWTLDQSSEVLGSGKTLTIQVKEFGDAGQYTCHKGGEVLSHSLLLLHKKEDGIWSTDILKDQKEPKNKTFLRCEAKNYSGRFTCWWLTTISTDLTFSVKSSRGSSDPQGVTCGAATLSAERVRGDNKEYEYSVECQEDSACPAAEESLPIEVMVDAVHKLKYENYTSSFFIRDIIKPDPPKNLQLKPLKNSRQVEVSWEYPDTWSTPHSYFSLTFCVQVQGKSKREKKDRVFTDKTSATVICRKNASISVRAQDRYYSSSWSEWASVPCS
Method: The dot blot binding assay previously described was used to characterize the relative potency of the majority of the aptamers synthesized. For KD determination, chemically synthesized aptamers were purified using denaturing polyacrylamide gel electrophoresis, 5′end labeled with γ-³²P ATP and were tested for direct binding to full human IL-23. An 8 point protein titration was used in the dot blot binding assay (either {100 nM, 30 nM, 10 nM, 3 nM, 1 nM, 300 pM, 100 pM, 0 pM} or {10 nM, 3 nM, 1 nM, 300 pM, 100 pM, 30 pM, 10 pM, 0 pM}) in Dulbecco's PBS (with Mg⁺⁺ and Ca⁺⁺) with 0.1 mg/mL BSA. KD values were calculated by fitting the equation y=(max/(1+K/protein))+yint using KaleidaGraph (KaleidaGraph v. 3.51, Synergy Software). Sequences of the ARC979 derivatives synthesized, purified and assayed for binding to IL-23 as well as the results of the protein binding characterization are tabulated below in Tables 29 and 30.

[2] = target: T1, IL-23 (human, p19/p40 heterodimer); experiment: filter; SHMCK, tRNA; details: tags: R&D Systems, carrier free
Method: Monitoring Progress of rRfY Selection. Dot blot binding assays were performed throughout the selections to monitor the protein binding affinity of the pools. Trace ³²P-labeled RNA was combined with a dilution series of h-IL-23 and incubated at room temperature for 30 minutes in 1×SHMCK (20 mM Hepes, 120 mM NaCl, 5 mM KCl, 1 mM MgCl₂, 1 mM CaCl₂, pH 7.4) plus 0.1 mg/mL tRNA for a final volume of 20 μL. The binding reactions were analyzed by nitrocellulose filtration using a Minifold I dot-blot, 96-well vacuum filtration manifold (Schleicher & Schuell, Keene, N.H.). A three-layer filtration medium was used, consisting (from top to bottom) of Protran nitrocellulose (Schleicher & Schuell), Hybond-P nylon (Amersham Biosciences) and GB002 gel blot paper (Schleicher & Schuell). RNA that is bound to protein is captured on the nitrocellulose filter, whereas the non-protein bound RNA is captured on the nylon filter. The gel blot paper was included simply as a supporting medium for the other filters. Following filtration, the filter layers were separated, dried and exposed on a phosphor screen (Amersham Biosciences, Piscataway, N.J.) and quantified using a Storm 860 Phosphorimager® blot imaging system (Amersham Biosciences).
When a significant positive ratio of binding of RNA in the presence of h-IL-23 versus in the absence of h-IL-23 was seen, the pools were cloned using a TOPO TA cloning kit (Invitrogen, Carlsbad, Calif.) according to the manufacturer's instructions. For the h-IL-23 and X-IL-23 selections, the Round 8 pool templates were cloned, and 32 individual clones from each selections were assayed in a 1-point dot blot screen (+/−75 nM h-IL-23, as well as a separate screen at +/−75 nM h-IL-12). For the PN-IL-23 selection, the Round 10 pool was cloned and sequenced, and 8 unique clones were assayed for protein binding in a 1-point dot blot screen (+/−200 nM h-IL-23 and a separate screen at +/−200 nM h-IL-12). Subsequently, the Round 10 PN-IL-23 pool was re-cloned for further sequences, as well as the R12 PN-IL-23 pool, and the clones were assayed for protein binding in a 1 point do blot screen (+/−100 nM h-IL-23 or +/−200 nM h-IL-12).

[3] = target: IL-12 (human, p35/p40 heterodimer) (Homo sapiens, UniProt P29459;P29460 SEQ:57-253,SEQ:23-328); experiment: filter; no significant binding
IL-12 (human, p35/p40 heterodimer), sequence (P29459 23-219, chain 1 of 2): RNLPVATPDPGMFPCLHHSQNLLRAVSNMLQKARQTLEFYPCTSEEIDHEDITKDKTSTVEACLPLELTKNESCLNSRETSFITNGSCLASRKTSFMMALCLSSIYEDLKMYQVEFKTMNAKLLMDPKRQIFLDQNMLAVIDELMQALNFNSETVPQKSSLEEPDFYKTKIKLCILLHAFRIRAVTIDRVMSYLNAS
IL-12 (human, p35/p40 heterodimer), sequence (P29460 23-328, chain 2 of 2): as the sequence (P29460 23-328, chain 2 of 2) above

Binder | Kd [1] [nM] | also measured
B1 | 2.4 | –
B2 | 29.5 | –
B3 | 1.6 | –
B4 | 2 | –
B5 | 2.8 | –
B6 | 3.9 | –
B7 | 14.2 | –
B8 | 3.8 | –
B9 | 10.2 | –
B10 | 4 | –
B11 | 3 | –
B12 | 6 | –
B13 | 4.4 | –
B14 | 2.6 | –
B15 | 1.8 | –
B16 | 18.9 | –
B17 | 3.2 | –
B18 | 1.7 | –
B19 | 1.2 | –
B20 | 2.7 | –
B21 | 2.9 | –
B22 | – | Kd [2]: 196 nM; binding result [3]: no binding
B23 | 8.6 | –
